Test results: article PMC4162605

Tested on: P49302
Assay: […] (DSC); […] (40 mM tris, pH 8.0, 0.5 M ([…]; 1 mg/mL; […]) dissociation
Conditions: other: differential scanning calorimetry (DSC)

“unmodified murine polyomavirus VP1 capsomere, as used for DSC” was tested. Which dHm of capsomere dissociation (first DSC endotherm) did it give?
Its dHm of capsomere dissociation (first DSC endotherm) is 87.6 kcal/mol.
